This note sets out measurements from patent US20020045591A1, “Methods and therapeutic compositions for treating cancer” (priority 1998, published 2002).

The test system of this assay is β-catenin-mediated transactivation. The experiment in a line: TOPFLASH luciferase transactivation in SW480 cells (Example 1). The format is cell-based, human. The note with it: SW480 cells transfected with TOPFLASH and N-cadherin derivative, FIG. 6A. On the procedure: Cell culture and transfections: CHO and SW480 human colon carcinoma cells were cultured in Dulbecco's modified Eagle's medium containing 10% fetal calf serum in an 8% CO2 incubator at 37° C. Transfections were performed using Lipofectamine (Gibco, BRL, USA) according to the manufacturer's instructions. Stably transfected CHO clones were generated by co-transfection with a plasmid encoding the puromycin resistance gene. Two days after transfection, cells were replated in the presence of 10 μg/ml puromycin (Sigma, Holon, Israel). Stable clones were isolated 2 weeks later and tested for the expression of the transgene by Western blot analysis.
Transactivation assays: CHO cells were transfected with TOPFLASH or FOPFLASH vectors (van de Wetering et al., 1997, ibid) and with pCDNA3 coding for β-galactosidase to normalize for transfection efficiency. The transfection mixture also contained either β-catenin, LEF-1 or cadherin derivatives in different combinations, as indicated. SW480 cells were transfected with TOPFLASH and cadherin derivatives. […] The reactions were stopped with 1 M Na2CO3 and the absorbance at 420 nm was determined. […] The luciferase reaction was monitored by a TD-20e luminometer (Turner, USA) and normalized for the β-galactosidase activity. […]

B1: N-cadherin tail: Cytoplasmic domain of chicken N-cadherin tagged with a Flag epitope (protein)
chain: MKRRDKERQAKQLLIDPEDDVRDNILKYDEEGGGEEDQDYDLSQLQQPDTVEPDAIKPVGIRRLDERPIHAEPQYPVRSAAPHPGDIGDFINEGLKAADNDPTAPPYDSLLVFDYEGSGSTAGSLSSLNSSSSGGEQDYDYLNDWGPRFKKLADMYGGGDD
modifications: left off: small tags and cut ends
Consider B1, for which the “inhibition of TOPFLASH reporter (luciferase) activity” value is “more than 85%”.
